From patent WO2001000678A1 (dated 2001)

Target: HIV-1 MN viral lysate (native gp120) (HIV-1 isolate MN, UniProt P05877 32-513)
Test: ELISA, biotinylated Fab on viral lysate; reference HIV-1 IIIb lysate

B1: Fab 7 (Fab, V domains shown)
VH: EVQLQESGPGLVKPSETLSLTCTVSGGSISSSSYYWGWIRQPPGKGLEWIGSIYYSGSTYYNPSLKSRVTISVDTSKNQFSLKLSSVTAAYTAVYYCARRCTSGVCYGAFDYWGQGTPVTVSS
VL: DLVMTQSPSFLSASVGDRVTITCRASQGISSYLAWYQQKSGKAPKLLIYGTSILQSGVPSRFSGSGSGTESTLTISSLQPEDFATYYCQQLNSYPITFGQGTRLEIK
binding relative to the level seen with IIIb: ~50%
